Paper PMC2742502 (Journal of immunology (Baltimore, Md. : 1950), 2008)

Key:
[1] = biological target: purified HLA A*0201 molecules (with human β2-microglobulin) (human (endogenous in EBV transformed cell lines) | human); experiment: radioligand binding
PBMC = format: cell-based, human
[2] = test system: T cells from healthy donors; conditions: heteroclitic HLA-A0201-restricted epitope; cited from earlier work

Work on “HCV NS3 1406-1415 epitope peptide … (Lp5)” yielded an IC50 [1] of 5 nM.

With phytohemmaglutinin [PHA] the “response in positive control” value (PBMC) was “uniformly positive”.

B1: Melan-A epitope (L26–35): heteroclitic HLA-A0201-restricted Melan-A epitope (peptide, UniProt Q16655 1-118, looked up, variant A27L)
Melanoma antigen recognized …: MPREDAHFIYGYPKKGHGHSYTTAEELAGIGILTVILGVLLLIGCWYCRRRNGYRALMDKSLHVGTQCALTRRCPQEGFDHRDSKVSLQEKNCEPVVPNAPPAYEKLSAEQSPPPYSP
modifications: epitope 26-35
In the case of B1, the “frequency of T cells recognizing the epitope” value [2] is given as “relatively frequent”.
